Read-outs that look alike come from different tables or passages of the source. One block for each binder: values may come before it.
What was measured:
[1] = molecular target: T1, CD200 (human CD200 on CHOK1/hCD200 cells); assay: cell-based or functional assay
T1 single chain: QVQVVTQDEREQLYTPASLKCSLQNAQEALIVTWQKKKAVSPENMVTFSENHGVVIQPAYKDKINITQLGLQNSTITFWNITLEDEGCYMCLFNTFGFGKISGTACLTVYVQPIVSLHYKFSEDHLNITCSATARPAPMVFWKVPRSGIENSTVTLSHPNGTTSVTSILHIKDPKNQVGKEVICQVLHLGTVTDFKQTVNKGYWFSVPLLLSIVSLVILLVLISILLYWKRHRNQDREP

[2] = molecular target: T1, CD200 (human CD200 on CHOK1/hCD200 …); assay: cell-based or functional assay
[3] = molecular target: T1, CD200 (human CD200 on CHOK1/hCD200 …); assay: cell-based or functional assay
[4] = molecular target: T1, CD200 (human CD200 on CHOK1/hCD200 …); assay: cell-based or functional assay
[5] = molecular target: T1, CD200 (human CD200 on CHOK1/hCD200 …); assay: cell-based or functional assay
[6] = molecular target: T2, human CD200R1 isoform a on CHOK1 cells (CHOK1/hCD200R1a) (human, UniProt Q8TD46 25-348); assay: flow cytometry on CHOK1/hCD200R1a cells
T2 construct: also called CHOK1/CD200R1a
T2 sequence: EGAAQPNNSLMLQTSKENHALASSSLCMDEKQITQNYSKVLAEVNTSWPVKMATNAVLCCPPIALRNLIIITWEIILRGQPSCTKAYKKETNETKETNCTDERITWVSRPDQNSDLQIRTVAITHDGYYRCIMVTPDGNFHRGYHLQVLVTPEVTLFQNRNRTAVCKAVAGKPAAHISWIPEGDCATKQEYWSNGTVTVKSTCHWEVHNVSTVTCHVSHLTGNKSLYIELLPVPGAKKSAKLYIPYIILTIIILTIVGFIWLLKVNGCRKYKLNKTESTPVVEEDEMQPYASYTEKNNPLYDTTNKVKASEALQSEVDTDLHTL
Method: (§1) This example is intended to investigate the in vitro binding activity of human anti-CD200R1 monoclonal antibodies to human/Cynomolgus macaques CD200R1a expressed on the surface of cells. The anti-CD200R1 antibodies were produced as described in Example 3.4 and the binding experiments at the cell level were performed using CHOK1/hCD200R1a and CHOK1-cynoCD200R1a.
(§2) Briefly, CHOK1/hCD200R1a cells and CHOK1-cynoCD200R1a cells were digested, and collected, and then were resuspended in PBS containing 2% BSA, respectively. The cell density was adjusted to 1×10⁶ cells/mL. The cells were seeded in a 96-well V-bottom plate (Corning, #3894) at 100 μL/well, followed by the addition of test antibodies and reference antibodies in a series diluted concentration, each at 100 μL/well. The cells were incubated away from light at 4° C. for 1 h. Thereafter, the cells in each well were rinsed twice with 100 μL of pre-cooled PBS containing 2% BSA, and centrifuged at 500 g at 4° C. for 5 min, and then the supernatant was discarded. […] Finally, the cells in each well were resuspended in 200 μL of pre-cooled PBS containing 2% BSA, and the fluorescence signal values were read using a BD CantoII flow cytometer.

[7] = molecular target: T3, Cynomolgus macaques CD200R1 isoform a on CHOK1 cells (CHOK1/cynoCD200R1a) (Cynomolgus macaques); assay: flow cytometry on CHOK1/cynoCD200R1a cells
T3 chain: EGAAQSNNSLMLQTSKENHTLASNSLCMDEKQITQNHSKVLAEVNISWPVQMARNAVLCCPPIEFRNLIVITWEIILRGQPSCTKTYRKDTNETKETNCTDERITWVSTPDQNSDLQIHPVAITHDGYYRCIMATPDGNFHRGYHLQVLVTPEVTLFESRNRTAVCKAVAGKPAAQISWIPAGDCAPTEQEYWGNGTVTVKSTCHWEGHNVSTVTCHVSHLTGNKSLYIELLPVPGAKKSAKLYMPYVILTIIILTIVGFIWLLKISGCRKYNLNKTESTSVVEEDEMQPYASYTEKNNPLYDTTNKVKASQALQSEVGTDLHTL
Method: as §1, §2

[8] = molecular target: T2, human CD200R1 isoform a on CHOK1 cells …; assay: flow cytometry, Alexa Fluor 647-labelled antibody on CHOK1/hCD200R1a cells
Method: Briefly, CHOK1/hCD200R1a cells and CHOK1-cynoCD200R1a cells were digested, and collected, and then were resuspended in PBS containing 2% BSA, respectively. The cell density was adjusted to 1×10⁶ cells/mL. The cells were seeded in a 96-well V-bottom plate (Corning, #3894) at 100 μL/well, followed by the addition of test antibodies and reference antibodies in a series diluted concentration, each at 100 μL/well. The cells were incubated away from light at 4° C. for 1 h. Thereafter, the cells in each well were rinsed twice with 100 μL of pre-cooled PBS containing 2% BSA, and centrifuged at 500 g at 4° C. for 5 min, and then the supernatant was discarded. […] The cells in each well were rinsed twice with 100 μL of pre-cooled PBS containing 2% BSA, and centrifuged at 500 g at 4° C. for 5 min, and then the supernatant was discarded. Finally, the cells in each well were resuspended in 200 μL of pre-cooled PBS containing 2% BSA, and the fluorescence signal values were read using a BD CantoII flow cytometer.
The cell density was adjusted to 1×10⁶ cells/mL.

IC50 of the inhibition of CD200-induced PathHunter Jurkat CD200R1a luminescence (CHOK1/hCD200 cells as CD200 source) [1]: 2.4 nM
IC50 of the inhibition of CD200-induced PathHunter Jurkat CD200R1a luminescence (CHOK1/hCD200 cells as CD200 source) [2]: 4.01 nM
IC50 of the inhibition of CD200-induced PathHunter Jurkat CD200R1a luminescence (CHOK1/hCD200 cells as CD200 source); head without unit, x axis Log [Ab] (nM) [3]: 4.18 nM
IC50 of the inhibition of CD200-induced PathHunter Jurkat CD200R1a luminescence (CHOK1/hCD200 cells as CD200 source) [4]: 3.4 nM
IC50 of the inhibition of CD200-induced PathHunter Jurkat CD200R1a luminescence (CHOK1/hCD200 cells as CD200 source); head without unit, x axis Log [Ab] (nM) [5]: 11.9 nM
B1: PR002903 (antibody, human IgG2, kappa, V domains shown)
VH: QVQLQQSGSELKKPGASVKISCKASGYSFTDYIILWVRQNPGKGLEWIGHIDPYYGSSNYNLKFKGRVTITADQSTTTAYMELSSLRSEDTAVYYCGRSKRDYFDYWGQGTTLTVSS
VL: DIQMTQSPSSLSASIGDRVTITCKASQDINSYLSWFQQKPGKAPKLLIYRANRLVDGVPSRFSGSGSGTDYTLTISSLQPEDFAVYYCLQYDEFPYTFGGGTKLEIKR

B2: PR200526 (antibody, human IgG1, lambda, V domains shown)
VH: QVQLVQSGAEVKKPGQSLRISCKGAGYSFSTYWIGWVRQMPGKGLEWMGIIYPDDSDTRYSPSFEGQVTISVDKSITTAYLHWSSLKASDTAIYYCARLVGGAPAYWGQGTLVTVSS
VL: QSALTQPASVSGSPGQSITISCSGSSSDIGRYDYVSWYQHYPDKAPKLIIYEVKHRPSGISHRFSASKSGNTASLTISELQPGDEADYYCASYTESKTYIFGGGTKVTVLG
notes: also called IgG1; hIgG1
binding result [6]: no binding (tested: log 2.5 nM (about 300 nM))
binding result [7]: no binding (tested: log 2.5 nM (about 300 nM))

B3: PR200691 (antibody, human IgG4 S228P, kappa, F234A L235A, V domains shown)
VH: QVQLVESGGGVVQPGRSLRLSCAASGFTFSRYGMHWVRQAPGKGLEWVAVIPYDGSNKYYADSVKGRFTISRDISKNTLYLQMNSLRAEDTAVYYCARRGYYDSSGYYYFYYGMDVWGQGTTVTVSS
VL: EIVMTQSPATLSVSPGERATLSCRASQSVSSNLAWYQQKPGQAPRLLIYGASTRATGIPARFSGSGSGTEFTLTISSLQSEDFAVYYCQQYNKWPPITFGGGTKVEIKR
binding result [8]: binds

— patent US20250313626A1 (HARBOUR BIOMED SHANGHAI, published 2025)
